Data set [1] deals with T1, His6-BkaRMtb (Mycobacterium tuberculosis H37Rv, UniProt O06169 1-215).
T1 sequence: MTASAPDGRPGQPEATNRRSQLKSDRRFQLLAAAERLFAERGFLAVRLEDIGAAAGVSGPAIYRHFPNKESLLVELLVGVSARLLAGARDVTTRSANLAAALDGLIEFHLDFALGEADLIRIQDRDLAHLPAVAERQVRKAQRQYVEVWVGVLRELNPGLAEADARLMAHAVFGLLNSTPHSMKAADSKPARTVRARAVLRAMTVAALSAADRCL
Briefly: EMSA; 20 mM HEPES pH 7.6, 1 mM EDTA, 10 mM ([…]; temperature not stated. The following applies: protein: recombinant, tags: His6 (pNIC28-Bsa4, GenBank EF198106), chain copies: 2, blunt. (In general: In EMSA bound probe runs differently from free probe, usually more slowly.)

Data set [2] deals with T1, His6-BkaRMtb. Briefly: EMSA; 0.6 uM protein, 0.06 uM DNA; 20 mM HEPES pH 7.6, 1 mM EDTA, 10 mM ([…]; temperature not stated. The settings on record: protein: recombinant; tags: His6 (pNIC28-Bsa4, GenBank EF198106); chain copies: 2; blunt.

B1: MSMEG_4524 motif probe (dsDNA)
DNA 1: CAGCAAGTAAATGTAGCCTAACCTAGCTACG
DNA 2: CGTAGCTAGGTTAGGCTACATTTACTTGCTG
Regarding B1, the binding result with His6-BkaRMtb [1] is “no binding”.

B2: MSMEG_4920 motif probe (dsDNA)
DNA 1: GCTGTGTTAACGATGATTAACCGGCACAGC
DNA 2: GCTGTGCCGGTTAATCATCGTTAACACAGC
On to B2, for which the binding result with His6-BkaRMtb [2] is listed as “binds”.

B3: MSMEG_3414 motif probe (dsDNA)
DNA 1: TCGGTCCAGGTTAGCCAAAACTATTTCAGAA
DNA 2: TTCTGAAATAGTTTTGGCTAACCTGGACCGA
Take B3: the binding result with His6-BkaRMtb [1] was “no binding”.

B4: Rv0575c motif probe (dsDNA)
DNA 1: ACGCCAATACGTTAGCGCTCACTAACGTATTG
DNA 2: CAATACGTTAGTGAGCGCTAACGTATTGGCGT
Take B4: the binding result with His6-BkaRMtb [1] is reported as “no binding”.

B5: probe 1 (bkaRMtb/fadD35) (dsDNA)
DNA 1: TCGTGCTACGTTAGTGACGATTAACCGAAG
DNA 2: CTTCGGTTAATCGTCACTAACGTAGCACGA
As for B5, the binding result in the data set with His6-BkaRMtb [1] (label: DIG-11-ddUTP 3' end) was “binds”.

B6: scoA motif probe (dsDNA)
DNA 1: CTCACCTCAGTTAATGATAATTAACTGAAA
DNA 2: TTTCAGTTAATTATCATTAACTGAGGTGAG
With B6, in the data set with His6-BkaRMtb [2], the binding result is recorded as “binds”.

B7: MSMEG_3415 motif probe (dsDNA)
DNA 1: TACTTCTGAAATAGTTTTGGCTAACCTGGAC
DNA 2: GTCCAGGTTAGCCAAAACTATTTCAGAAGTA
For the molecule B7, the binding result with His6-BkaRMtb [1] is on record as “no binding”.

B8: Rv0576 motif probe (dsDNA)
DNA 1: GATCAATACGTTAGTGAGCGCTAACGTATT
DNA 2: AATACGTTAGCGCTCACTAACGTATTGATC
On to B8, for which, in the data set with His6-BkaRMtb [1], the binding result is given as “no binding”.

The record behind these values is article PMC3920632, “bkaR is a TetR-type repressor that controls an operon associated with branched-chain keto-acid metabolism in Mycobacteria”.
